Reference: paper PMC4176360, “Crystal structure of the catalytic core of Rad2: insights into the mechanism of substrate binding” (Nucleic Acids Research, 2014)

Experiments:
[1] = molecular target: the molecule itself; assay: crystal structure; complex I: selenomethionine-labeled Rad2-ΔSC mixed with DNA at a 1:1.2 molar ratio, sitting-drop vapor diffusion, room temperature, reservoir 20% (v/v) ethylene glycol; space group P3(2)21, 2.75 Å
[2] = molecular target: Sc-Rad2-ΔSC (complex I construct) (Saccharomyces cerevisiae, UniProt P07276 1-986, del112-731;del987-1031); assay: X-ray crystallography; non-productive complex; DNA largely disordered, backbone contacts H2TH of one subunit; Crystallization at room temperature, protein:DNA 1:1.2, 10 mg/ml protein; protein in 20 mM HEPES pH 7.5, 150 mM KCl, 5 mM Ca acetate, 5% glycerol, 0.5 mM TCEP (complex I: 150 mM NaCl); point-mutant cleavage assays without a binding read-out not listed; settings: protein: recombinant; tags: 6xHis-SUMO cleaved; two additional N-terminal residues left; chain copies: 2; duplex 12-15 bp with overhangs
[3] = molecular target: T1, Sc-Rad2-ΔSC (Saccharomyces cerevisiae, UniProt P07276 2-986, del112-731;del987-1031); assay: X-ray crystallography, 2.1 Å; Ca2+ at active site; K+ at H2TH; Crystallization at room temperature, protein:DNA 1:1.2, 10 mg/ml protein; protein in 20 mM HEPES pH 7.5, 150 mM KCl, 5 mM Ca acetate, 5% glycerol, 0.5 mM TCEP (complex I: 150 mM NaCl); point-mutant cleavage assays without a binding read-out not listed; settings: protein: recombinant; tags: 6xHis-SUMO removed by SENP; N-terminal Gly2 after cleavage; chain copies: 2; 14 complementary bp with TT overhangs on all four ends; in crystal 15-mer duplex with one T-T mismatch, 1 nt overhangs at one end and 2 nt at the other
[4] = molecular target: T1, Sc-Rad2-ΔSC; assay: X-ray crystallography, 2.4 Å; Ca2+ at active site; K+ at H2TH; Crystallization at room temperature, protein:DNA 1:1.2, 10 mg/ml protein; protein in 20 mM HEPES pH 7.5, 150 mM KCl, 5 mM Ca acetate, 5% glycerol, 0.5 mM TCEP (complex I: 150 mM NaCl); point-mutant cleavage assays without a binding read-out not listed; settings: protein: recombinant; tags: 6xHis-SUMO removed by SENP; N-terminal Gly2 after cleavage; chain copies: 2; 15 bp with 1 nt overhangs on all four ends
[5] = molecular target: T1, Sc-Rad2-ΔSC; assay: X-ray crystallography, 2.7 Å; Ca2+ at active site; K+ at H2TH; Crystallization at room temperature, protein:DNA 1:1.2, 10 mg/ml protein; protein in 20 mM HEPES pH 7.5, 150 mM KCl, 5 mM Ca acetate, 5% glycerol, 0.5 mM TCEP (complex I: 150 mM NaCl); point-mutant cleavage assays without a binding read-out not listed; settings: protein: recombinant; tags: 6xHis-SUMO removed by SENP; N-terminal Gly2 after cleavage; chain copies: 2; 15 bp with 4 nt overhangs on all four ends

B1: Sc-Rad2-ΔSC (Δ112-731, Δ987-1031) (enzyme, S. cerevisiae, UniProt P07276 1-986, looked up)
chain: MGVHSFWDIAGPTARPVRLESLEDKRMAVDASIWIYQFLKAVRDQEGNAVKNSHITGFFRRICKLLYFGIRPVFVFDGGVPVLKRETIRQRKERRQGKRESAKSTARKLLANTTLSTSAERNVAENAFVEDELFEQQMKDKRDSDEVTMDMIKEVQELLSRFGIPYITAPMEAEAQCAELLQLNLVDGIITDDSDVFLFGGTKIYKNMFHEKNYVEFYDAESILKLLGLDRKNMIELAQLLGSDYTNGLKGMGPVSSIEVIAEFGNLKNFKDWYNNGQFDKRKQETENKFEKDLRKKLVNNEIILDDDFPSVMVYDAYMRPEVDHDTTPFVWGVPDLDMLRSFMKTQLGWPHEKSDEILIPLIRDV
modifications: selenomethionine-labeled (complex I)
notes: Rad2, S. cerevisiae, spacer residues 112-731 removed and C-terminus (residues 987-1031) removed; The dimer is seen in crystal complex I together with disordered DNA; The same construct, not selenomethionine-labeled, stands in complexes II-IV; also called Sc-Rad-ΔSC; catalytic core of Rad2; source: E. coli BL21 (DE3) Rosseta, purified (HisTrap, SENP cleavage, second HisTrap, Superdex 200); …
[1]
  binding result: binds

B2: complex I DNA (dsDNA)
DNA 1: AAAGCTCTGACTCAG
DNA 2: CTGAGTCAGAGCAAA
[2]
  binding result: binds

B3: complex II DNA (dsDNA)
DNA 1: TTAGGTGGACGGATCATT
DNA 2: TTTGATCCGTCCACCTTT
[3]
  binding result: binds

B4: complex III DNA (dsDNA)
DNA 1: TGCTCCCTTGTCTCAGT
DNA 2: TCTGAGACAAGGGAGCT
[4]
  binding result: binds

B5: complex IV DNA (dsDNA)
DNA 1: TTTTGCTCCCTTGTCTCAGTTTT
DNA 2: TTTTCTGAGACAAGGGAGCTTTT
[5]
  binding result: binds
